Measured values from article PMC6328869, “Functional and structural studies of tolloid-like 1 mutants associated with atrial-septal defect 6” (Bioscience Reports, 2018).

T1: recombinant murine chordin (murine, UniProt Q9Z0E2 27-948)
T1 construct: Chordin, murine, recombinant (R&D Systems); The source and species of chordin are told for the cleavage assay; source: bought: R&D Systems
T1 sequence (looked up): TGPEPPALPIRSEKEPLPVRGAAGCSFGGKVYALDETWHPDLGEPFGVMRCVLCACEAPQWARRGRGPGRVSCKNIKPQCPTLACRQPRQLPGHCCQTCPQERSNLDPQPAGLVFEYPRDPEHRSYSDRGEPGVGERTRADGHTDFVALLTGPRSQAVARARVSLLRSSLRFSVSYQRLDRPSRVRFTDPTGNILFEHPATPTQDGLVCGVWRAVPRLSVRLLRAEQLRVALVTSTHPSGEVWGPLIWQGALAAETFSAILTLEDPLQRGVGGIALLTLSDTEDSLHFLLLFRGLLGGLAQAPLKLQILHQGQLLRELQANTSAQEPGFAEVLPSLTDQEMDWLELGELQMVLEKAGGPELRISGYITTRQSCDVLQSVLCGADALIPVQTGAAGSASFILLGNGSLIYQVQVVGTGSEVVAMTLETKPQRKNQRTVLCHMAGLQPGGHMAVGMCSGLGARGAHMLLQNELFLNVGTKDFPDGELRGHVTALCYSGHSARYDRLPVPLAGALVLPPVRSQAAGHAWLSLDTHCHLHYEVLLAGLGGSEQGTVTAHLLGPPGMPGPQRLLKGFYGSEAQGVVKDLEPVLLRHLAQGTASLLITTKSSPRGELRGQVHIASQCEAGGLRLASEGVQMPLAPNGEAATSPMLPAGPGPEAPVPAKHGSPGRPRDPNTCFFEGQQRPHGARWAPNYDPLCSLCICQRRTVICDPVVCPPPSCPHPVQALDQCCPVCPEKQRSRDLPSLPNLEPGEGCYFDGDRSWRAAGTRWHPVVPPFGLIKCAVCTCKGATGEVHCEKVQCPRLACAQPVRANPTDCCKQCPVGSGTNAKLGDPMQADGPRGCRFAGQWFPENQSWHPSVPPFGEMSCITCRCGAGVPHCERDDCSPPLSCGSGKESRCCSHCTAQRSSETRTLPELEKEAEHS

B1: recombinant wild-type mammalian tolloid-like 1 (TLL1) (enzyme, human, UniProt O43897-1 148-1013, looked up)
chain: AATSRTERIWPGGVIPYVIGGNFTGSQRAMFKQAMRHWEKHTCVTFIERSDEESYIVFTYRPCGCCSYVGRRGNGPQAISIGKNCDKFGIVVHELGHVIGFWHEHTRPDRDNHVTIIRENIQPGQEYNFLKMEPGEVNSLGERYDFDSIMHYARNTFSRGMFLDTILPSRDDNGIRPAIGQRTRLSKGDIAQARKLYRCPACGETLQESNGNLSSPGFPNGYPSYTHCIWRVSVTPGEKIVLNFTTMDLYKSSLCWYDYIEVRDGYWRKSPLLGRFCGDKLPEVLTSTDSRMWIEFRSSSNWVGKGFAAVYEAICGGEIRKNEGQIQSPNYPDDYRPMKECVWKITVSESYHVGLTFQSFEIERHDNCAYDYLEVRDGTSENSPLIGRFCGYDKPEDIRSTSNTLWMKFVSDGTVNKAGFAANFFKEEDECAKPDRGGCEQRCLNTLGSYQCACEPGYELGPDRRSCEAACGGLLTKLNGTITTPGWPKEYPPNKNCVWQVVAPTQYRISVKFEFFELEGNEVCKYDYVEIWSGLSSESKLHGKFCGAEVPEVITSQFNNMRIEFKSDNTVSKKGFKAHFFSDKDECSKDNGGCQHECVNTMGSYMCQCRNGFVLHDNKHDCKEAECEQKIHSPSGLITSPNWPDKYPSRKECTWEISATPGHRIKLAFSEFEIEQHQECAYDHLEVFDGETEKSPILGRLCGNKIPDPLVATGNKMFVRFVSDASVQRKGFQATHSTECGGRLKAESKPRDLYSHAQFGDNNYPGQVDCEWLLVSERGSRLELSFQTFEVEEEADCGYDYVELFDGLDSTAVGLGRFCGSGPPEEIYSIGDSVLIHFHTDDTINKKGFHIRYKSIRYPDTTHTKK
notes: Human tolloid-like 1 (TLL1), functional enzyme lacking the signal peptide and the latency pro-domain; encoded by nucleotides 1089-3686 of NM_012464.4 (mRNA variant 1 TLL1); Expressed behind the signal peptide of the procollagen I alpha 1 chain (nucleotides 5127-5192 of NM_007400.1 as printed) for secretion; also called WT; native TLL1; source: HT-1080 cells, stably transfected (pIRESneo3), …
B2: recombinant TLL1 mutated variant I629V (enzyme, human, UniProt O43897-1 148-1013, looked up)
chain: AATSRTERIWPGGVIPYVIGGNFTGSQRAMFKQAMRHWEKHTCVTFIERSDEESYIVFTYRPCGCCSYVGRRGNGPQAISIGKNCDKFGIVVHELGHVIGFWHEHTRPDRDNHVTIIRENIQPGQEYNFLKMEPGEVNSLGERYDFDSIMHYARNTFSRGMFLDTILPSRDDNGIRPAIGQRTRLSKGDIAQARKLYRCPACGETLQESNGNLSSPGFPNGYPSYTHCIWRVSVTPGEKIVLNFTTMDLYKSSLCWYDYIEVRDGYWRKSPLLGRFCGDKLPEVLTSTDSRMWIEFRSSSNWVGKGFAAVYEAICGGEIRKNEGQIQSPNYPDDYRPMKECVWKITVSESYHVGLTFQSFEIERHDNCAYDYLEVRDGTSENSPLIGRFCGYDKPEDIRSTSNTLWMKFVSDGTVNKAGFAANFFKEEDECAKPDRGGCEQRCLNTLGSYQCACEPGYELGPDRRSCEAACGGLLTKLNGTVTTPGWPKEYPPNKNCVWQVVAPTQYRISVKFEFFELEGNEVCKYDYVEIWSGLSSESKLHGKFCGAEVPEVITSQFNNMRIEFKSDNTVSKKGFKAHFFSDKDECSKDNGGCQHECVNTMGSYMCQCRNGFVLHDNKHDCKEAECEQKIHSPSGLITSPNWPDKYPSRKECTWEISATPGHRIKLAFSEFEIEQHQECAYDHLEVFDGETEKSPILGRLCGNKIPDPLVATGNKMFVRFVSDASVQRKGFQATHSTECGGRLKAESKPRDLYSHAQFGDNNYPGQVDCEWLLVSERGSRLELSFQTFEVEEEADCGYDYVELFDGLDSTAVGLGRFCGSGPPEEIYSIGDSVLIHFHTDDTINKKGFHIRYKSIRYPDTTHTKK
notes: Human tolloid-like 1 (TLL1), functional enzyme lacking the signal peptide and the latency pro-domain; encoded by nucleotides 1089-3686 of NM_012464.4 (mRNA variant 1 TLL1); mutation found in ASD6 patients, in the CUB3 domain; Same construct as m1 (procollagen I alpha 1 signal peptide for secretion, C-terminal 7xHis) with the point mutation; also called Ile629Val; mutation 3; source: HT-1080 …
B3: recombinant TLL1 mutated variant M182L (enzyme, human, UniProt O43897-1 148-1013, looked up)
chain: AATSRTERIWPGGVIPYVIGGNFTGSQRAMFKQALRHWEKHTCVTFIERSDEESYIVFTYRPCGCCSYVGRRGNGPQAISIGKNCDKFGIVVHELGHVIGFWHEHTRPDRDNHVTIIRENIQPGQEYNFLKMEPGEVNSLGERYDFDSIMHYARNTFSRGMFLDTILPSRDDNGIRPAIGQRTRLSKGDIAQARKLYRCPACGETLQESNGNLSSPGFPNGYPSYTHCIWRVSVTPGEKIVLNFTTMDLYKSSLCWYDYIEVRDGYWRKSPLLGRFCGDKLPEVLTSTDSRMWIEFRSSSNWVGKGFAAVYEAICGGEIRKNEGQIQSPNYPDDYRPMKECVWKITVSESYHVGLTFQSFEIERHDNCAYDYLEVRDGTSENSPLIGRFCGYDKPEDIRSTSNTLWMKFVSDGTVNKAGFAANFFKEEDECAKPDRGGCEQRCLNTLGSYQCACEPGYELGPDRRSCEAACGGLLTKLNGTITTPGWPKEYPPNKNCVWQVVAPTQYRISVKFEFFELEGNEVCKYDYVEIWSGLSSESKLHGKFCGAEVPEVITSQFNNMRIEFKSDNTVSKKGFKAHFFSDKDECSKDNGGCQHECVNTMGSYMCQCRNGFVLHDNKHDCKEAECEQKIHSPSGLITSPNWPDKYPSRKECTWEISATPGHRIKLAFSEFEIEQHQECAYDHLEVFDGETEKSPILGRLCGNKIPDPLVATGNKMFVRFVSDASVQRKGFQATHSTECGGRLKAESKPRDLYSHAQFGDNNYPGQVDCEWLLVSERGSRLELSFQTFEVEEEADCGYDYVELFDGLDSTAVGLGRFCGSGPPEEIYSIGDSVLIHFHTDDTINKKGFHIRYKSIRYPDTTHTKK
notes: Human tolloid-like 1 (TLL1), functional enzyme lacking the signal peptide and the latency pro-domain; encoded by nucleotides 1089-3686 of NM_012464.4 (mRNA variant 1 TLL1); mutation found in ASD6 patients, in the catalytic domain; Same construct as m1 (procollagen I alpha 1 signal peptide for secretion, C-terminal 7xHis) with the point mutation; also called Met182Leu; mutation 1; source: HT-1080 …
B4: recombinant TLL1 mutated variant V238A (enzyme, human, UniProt O43897-1 148-1013, looked up)
chain: AATSRTERIWPGGVIPYVIGGNFTGSQRAMFKQAMRHWEKHTCVTFIERSDEESYIVFTYRPCGCCSYVGRRGNGPQAISIGKNCDKFGIAVHELGHVIGFWHEHTRPDRDNHVTIIRENIQPGQEYNFLKMEPGEVNSLGERYDFDSIMHYARNTFSRGMFLDTILPSRDDNGIRPAIGQRTRLSKGDIAQARKLYRCPACGETLQESNGNLSSPGFPNGYPSYTHCIWRVSVTPGEKIVLNFTTMDLYKSSLCWYDYIEVRDGYWRKSPLLGRFCGDKLPEVLTSTDSRMWIEFRSSSNWVGKGFAAVYEAICGGEIRKNEGQIQSPNYPDDYRPMKECVWKITVSESYHVGLTFQSFEIERHDNCAYDYLEVRDGTSENSPLIGRFCGYDKPEDIRSTSNTLWMKFVSDGTVNKAGFAANFFKEEDECAKPDRGGCEQRCLNTLGSYQCACEPGYELGPDRRSCEAACGGLLTKLNGTITTPGWPKEYPPNKNCVWQVVAPTQYRISVKFEFFELEGNEVCKYDYVEIWSGLSSESKLHGKFCGAEVPEVITSQFNNMRIEFKSDNTVSKKGFKAHFFSDKDECSKDNGGCQHECVNTMGSYMCQCRNGFVLHDNKHDCKEAECEQKIHSPSGLITSPNWPDKYPSRKECTWEISATPGHRIKLAFSEFEIEQHQECAYDHLEVFDGETEKSPILGRLCGNKIPDPLVATGNKMFVRFVSDASVQRKGFQATHSTECGGRLKAESKPRDLYSHAQFGDNNYPGQVDCEWLLVSERGSRLELSFQTFEVEEEADCGYDYVELFDGLDSTAVGLGRFCGSGPPEEIYSIGDSVLIHFHTDDTINKKGFHIRYKSIRYPDTTHTKK
notes: Human tolloid-like 1 (TLL1), functional enzyme lacking the signal peptide and the latency pro-domain; encoded by nucleotides 1089-3686 of NM_012464.4 (mRNA variant 1 TLL1); mutation found in ASD6 patients, in the catalytic domain; Same construct as m1 (procollagen I alpha 1 signal peptide for secretion, C-terminal 7xHis) with the point mutation; also called Val238Ala; mutation 2; source: HT-1080 …

Assays:
[1] = molecular target: T1, recombinant murine chordin; assay: SPR; Sensiq Pioneer biosensor; chordin amine-coupled (NHS/EDC, 10 mM acetate pH 4.5) to a COOH1 SPR chip; TLL1 variant as free analyte at 10-400 nM, 10 ul/min for 11 min; HBS-TE (HEPES-buffered saline, 0.005% Tween 20), 25 °C; regeneration with 10 mM HCl; global fitting; Kd from koff/kon; conditions: both partners purified
[2] = molecular target: T1, recombinant murine chordin; assay: cell-based or functional assay

| Binder | Ka [1] [M⁻¹] | Kd [1] [µM] | koff [1] [s⁻¹] | kon [1] [M⁻¹ s⁻¹] | cleavage of chordin (densitometry of the intact chordin band after SDS/PAGE), activity against wild-type TLL1 [2] |
| --- | --- | --- | --- | --- | --- |
| B1 | 8.6e+06 | 0.117 | 0.000305 | 2600 | – |
| B2 | 41000 | 25 | 0.00091 | 37 | ~25 % lower than wild-type TLL1 |
| B3 | 24000 | 42 | 0.0018 | 43 | 50 % lower than wild-type TLL1 |
| B4 | 55000 | 18 | 0.0006 | 33 | ~25 % lower than wild-type TLL1 |
